Assay results: US6863888 (University of California, dated 2005)

B1: GSTcJun(33-223), GST fused to c-Jun AA 33-223 (other)
chain: ILKQSMTLNLADPVGSLKPHLRAKNSDLLTSPDVGLLKLASPELERLIIQSSNGHITTTPTPTQFLCPKNVTDEQEGFAEGFVRALAELHSQNTLPSVTSAAQPVNGAGMVAPAVASVAGGSGSGGFSASLHSEPPVYANLSNFNPGALSSGGGAPSYGAAGLAFPAQPQQQQQPPHHLPQQMPVQHPRLQ
notes: also called removal of AA 1-32; not shown: GST carrier (pGEX3X, Pharmacia) and the vector junction residues
B2: c-Jun N-terminal protein kinase (JNK), 46 kD form, endogenous kinase from cell extracts (enzyme)
chain: MSRSKRDNNFYSVEIGDSTFTVLKRYQNLKPIGSGAQGIVCAAYDAILERNVAIKKLSRPFQNQTHAKRAYRELVLMKCVNHKNIIGLLNVFTPQKSLEEFQDVYIVMELMDANLCQVIQMELDHERMSYLLYQMLCGIKHLHSAGIIHRDLKPSNIVVKSDCTLKILDFGLARTAGTSFMMTPYVVTRYYRAPEVILGMGYKENVDLWSVGCIMGEMVCHKILFPGRDYIDQWNKVIEQLGTPCPEFMKKLQPTVRTYVENRPKYAGYSFEKLFPDVLFPADSEHNKLKASQARDLLSKMLVIDASKRISVDEALQHPYINVWYDPSEAEAPPPKIPDKQLDEREHTIEEWKELIYKEVMDLEERTKNGVIRGQPSPLAQVQQ
B3: GST-cJun(43-223), GST fused to c-Jun AA 43-223 (other)
chain: ADPVGSLKPHLRAKNSDLLTSPDVGLLKLASPELERLIIQSSNGHITTTPTPTQFLCPKNVTDEQEGFAEGFVRALAELHSQNTLPSVTSAAQPVNGAGMVAPAVASVAGGSGSGGFSASLHSEPPVYANLSNFNPGALSSGGGAPSYGAAGLAFPAQPQQQQQPPHHLPQQMPVQHPRLQ
notes: also called removal of AA 1-42; deletion of residues 1-42; not shown: GST carrier (pGEX3X, Pharmacia) and the vector junction residues
B4: epitope-tagged JNK1 (Flag epitope Asp-Tyr-Lys-Asp-Asp-Asp-Asp-Lys inserted between codons 1 and 2), expressed in COS cells (enzyme)
chain: MDYKDDDDKSRSKRDNNFYSVEIGDSTFTVLKRYQNLKPIGSGAQGIVCAAYDAILERNVAIKKLSRPFQNQTHAKRAYRELVLMKCVNHKNIIGLLNVFTPQKSLEEFQDVYIVMELMDANLCQVIQMELDHERMSYLLYQMLCGIKHLHSAGIIHRDLKPSNIVVKSDCTLKILDFGLARTAGTSFMMTPYVVTRYYRAPEVILGMGYKENVDLWSVGCIMGEMVCHKILFPGRDYIDQWNKVIEQLGTPCPEFMKKLQPTVRTYVENRPKYAGYSFEKLFPDVLFPADSEHNKLKASQARDLLSKMLVIDASKRISVDEALQHPYINVWYDPSEAEAPPPKIPDKQLDEREHTIEEWKELIYKEVMDLEERTKNGVIRGQPSPLAQVQQ
notes: Tag inserted between codons 1 and 2 of the JNK1 cDNA in pCMV5; also called immunopurified JNK1
B5: GST-cJun(1-79), GST fused to c-Jun AA 1-79 (other)
chain: MTAKMETTFYDDALNASFLPSESGPYGYSNPKILKQSMTLNLADPVGSLKPHLRAKNSDLLTSPDVGLLKLASPELERL
notes: also called GST fusion protein containing AA 1-79 of c-Jun; not shown: glutathione-S-transferase (GST) carrier encoded by pGEX3X (Pharmacia)

Legend:
[1] = molecular target: B4; assay: immunopurified JNK1 on GST-Jun fusion proteins bound to GSH-agarose, solid-phase kinase assay
Procedure: (§1) Clarified cell extracts were incubated with GST fusion proteins immobilized on GSH-agarose beads. […] The reaction was terminated after 10 mins at 30° C. and the products were resolved by SDS-PAGE. The incorporation of [^32P]phosphate was visualized by autoradiography and quantitated with a phosphorimager and ImageQuant software (Molecular Dynamics Inc., Sunnyvale, Calif.).
(§2) Mock-transfected COS cells were used as a control. After 1 hour, the cells were lysed and subjected to immunoprecipitation with the M2 monoclonal antibody. […] The phosphorylated proteins were resolved by SDS-PAGE and detected by autoradiography.

[2] = molecular target: GAL4-cJun(1-223), GAL4 DNA binding domain fused to c-Jun AA 1-223 (yeast; human, UniProt P04386 1-147); assay: cell-based or functional assay
[3] = molecular target: B2; assay: GSTcJun deletion mutants on GSH-agarose, UV-irradiated HeLa extract; solid-phase kinase assay and eluted-kinase assay
[4] = molecular target: T1, GSTcJun(wt), glutathione-S-transferase fused to c-Jun AA 1-223 (human, UniProt P08515 1-218 = GST); assay: immunopurified JNK1 on GST-Jun fusion proteins bound to GSH-agarose, solid-phase kinase assay
T1 construct: Expressed in E. coli, held on GSH-agarose beads; also called human GSTcJun
Procedure: as §1, §2

[5] = molecular target: B4; assay: COS cell lysates on GST-cJun(1-79) immobilized on GSH-agarose beads, Western blot with M2 antibody
Procedure: COS cell extracts (250 µg) were incubated with 20 µg GST or GST-cJun immobilized on 10 µl GSH-agarose at 4° C. for 5 hours.
Mock-transfected COS cells were used in control experiments (lanes 1 & 2). The cells were either untreated (lanes 1 & 3) or irradiated with 40 J/m^2 UV-C (lanes 2, 4, & 5). Cell lysates were prepared and incubated with GST-cJun(1-79) (lanes 1–4) or GST (lane 5) immobilized on GSH-agarose beads.

Binder: B1
binding result [1]: binds

Binder: B2
Ha-Ras responsiveness, CAT activity of 5xGAL4-Elb-CAT reporter in F9 cells [2]: 19 fold induction | UV responsiveness, CAT activity of 5xGAL4-Elb-CAT reporter in F9 cells [2]: 7.5 fold

Binder: B3
binding result [1]: no binding | binding result [3]: no binding

Binder: B4
binding result [4]: binds

Binder: B5
binding result [5]: binds
